Results published in US20090011510A1.

Biological target: intracellular product of the soybean Rps1b gene (soybean)
Experiment: cell-based or functional assay

mature Avr1b (lacking the secretory leader), Phytophthora sojae
Killing in presence of Rps1b (ratio of GUS spots): 0.22
